Data as given in PMC8699718, “A structurally conserved site in AUP1 binds the E2 enzyme UBE2G2 and is essential for ER-associated degradation” (PLoS Biology, 2021).

Experiments:
[1] = biological target: T1, purified UBE2G2 (UniProt P60604 1-165, ^15N-labeled for NMR); experiment: NMR titration; ^1H-^15N HSQC of ^15N-labeled UBE2G2 at 150 μM, alone or bound to G2BR peptide, titrated with gp78 RING 0 to 450 μM; chemical shift perturbations fitted; 50 mM Tris-Cl pH 7.0, 0.5 mM TCEP, 100 μM zinc sulfate; conditions: both partners purified
T1 construct: UBE2G2, purified recombinant protein used for ITC, FP, MST and NMR; also called apo-UBE2G2; ^15N-labeled UBE2G2
T1 sequence (looked up): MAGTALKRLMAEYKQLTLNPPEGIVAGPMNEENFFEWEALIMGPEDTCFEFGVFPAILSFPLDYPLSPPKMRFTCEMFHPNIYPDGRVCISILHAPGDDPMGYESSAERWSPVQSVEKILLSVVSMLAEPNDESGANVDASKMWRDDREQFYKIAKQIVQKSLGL

[2] = biological target: T2, UBE2G2:G2BR^AUP1 complex (UniProt P60604 1-165, ^15N-labeled); experiment: as above; conditions: both partners purified
T2 construct: UBE2G2, as m15; AUP1 G2BR, residues 378-404, as m16; Complex formed before titration with the gp78 RING; also called G2BR^AUP1:UBE2G2
T2 sequence 1: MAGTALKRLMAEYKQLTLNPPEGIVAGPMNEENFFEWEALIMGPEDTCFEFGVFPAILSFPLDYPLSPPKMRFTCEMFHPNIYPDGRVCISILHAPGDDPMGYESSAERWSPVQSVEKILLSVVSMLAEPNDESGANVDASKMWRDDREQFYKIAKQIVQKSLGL
T2 sequence 2: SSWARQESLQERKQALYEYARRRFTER

[3] = biological target: T3, UBE2G2:G2BR^gp78 complex (UniProt P60604 1-165, ^15N-labeled); experiment: as above; conditions: both partners purified
T3 construct: UBE2G2, as m15; N-terminal Trp residue added for peptide quantification, as m17; gp78 G2BR, residues 574-600, as m17; Complex formed before titration with the gp78 RING; also called G2BR^gp78:UBE2G2
T3 sequence 1: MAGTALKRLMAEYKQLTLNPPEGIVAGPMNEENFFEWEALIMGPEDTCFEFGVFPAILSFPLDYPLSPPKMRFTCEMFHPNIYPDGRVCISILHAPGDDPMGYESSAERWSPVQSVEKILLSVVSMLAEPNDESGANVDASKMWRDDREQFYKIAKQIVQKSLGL
T3 sequence 2: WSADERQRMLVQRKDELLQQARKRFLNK

[4] = biological target: T4, UBE2G2 (Homo sapiens, UniProt P60604); experiment: GST pulldown of in vitro translated 35S-UBE2G2; format: binding; conditions: GST-AUP1 aa 292 to 410 on glutathione beads, ~3 pmol GST fusion, ~0.2 pmol E2, overnight 4°C, pH 7.4
T4 construct: made in house
T4 sequence (P60604 1-165): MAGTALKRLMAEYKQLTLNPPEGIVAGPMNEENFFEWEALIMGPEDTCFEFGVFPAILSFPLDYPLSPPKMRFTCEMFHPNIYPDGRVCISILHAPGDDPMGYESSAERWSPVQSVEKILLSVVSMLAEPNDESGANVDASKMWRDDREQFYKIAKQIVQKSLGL
Method: (§1) Fig 3 The AUP1–UBE2G2 interaction is required for ERAD. (A) Equimolar amounts of GST-AUP1 (aa 292 to 410) or GST were immobilized on glutathione beads and binding to the indicated in vitro translated ^35S-labeled E2s was assessed. Left panel is 5% of input used for binding. E2s are referred to by their unique alpha-numeric designation (e.g., UBE2G1 and UBE2J1). (B) HT1080 or UBE2G2 KO cells were transfected with INSIG-1-MYC and degradation assessed by CHX chase. […] (D) Cells were transfected with NHK-MYC and HA-ubiquitin and ubiquitination of NHK assessed following proteasome inhibition and IP (right panel). Left panel is 10% of total cell lysate used for IP, indicating no discernable change in total ubiquitination. (E) Levels of endogenous HRD1 were monitored by CHX chase in the indicated cell types. (F) Ubiquitination of endogenous HRD1 was assessed following IP with HRD1 antiserum. Arrow in upper panel indicates migration of unmodified HRD1. Control immunoprecipitates using rabbit serum are shown for comparison. The data underlying this figure can be found in S1 Data. aa, amino acid; AUP1, ancient ubiquitous protein 1; CHX, cycloheximide; ERAD, endoplasmic reticulum–associated degradation; IP, immunoprecipitation; KO, knockout; WT, wild type.
Fig 6 Disruption of UBE2G2:G2BR^AUP1 interaction abrogates AUP1 function in cells. (A) GST or indicated GST-AUP1 fusions (aa 292 to 410, expression shown in Coomassie-stained gel) were immobilized on glutathione beads and binding to ^35S-UBE2G2 was assessed as in Fig 3A. Mutations include 2A (R382A/Q383A), 2E (R382E/Q383E), and 5E (R382E/Q383E/K390E/R398E/R400E). (B) AUP1 KO cells were transfected with NHK-HA and forms of full-length AUP1-FLAG with the indicated point mutations from (A) and NHK degradation assessed by CHX chase. (C) Binding assay performed as in (A) with AUP1 mutants predicted to disrupt hydrophobic interactions with UBE2G2. (D) Cellular assay performed as in (B) with AUP1-FLAG mutants that disrupt interactions with UBE2G2 in vitro in (C). The data underlying this figure can be found in S1 Data. aa, amino acid; AUP1, ancient ubiquitous protein 1; CHX, cycloheximide; G2BR, UBE2G2 Binding Region; KO, knockout; WT, wild type.
In vitro translated ^35S methionine-labeled E2s were generated using the E. coli T7-S30 Extract System (Promega) and excess ^35S methionine was removed by desalting twice with Zeba Spin Desalting Columns (Thermo Scientific). GST fusion proteins were quantified by Coomassie blue staining. Moreover, 0.1 μg of GST fusion protein (approximately 3 pmol) was prebound to GS 4B (GE Healthcare) and then incubated with approximately 10^5 cpm of ^35S methionine-labeled E2 (approximately 0.2 pmol) in 200 μl Binding Buffer (25 mM Tris-HCl, pH 7.4, 50 mM NaCl, 5 mM DTT, 0.5% IGEPAL CA-630) overnight at 4°C. Beads were extensively washed in Binding Buffer, resolved on Bis/Tris polyacrylamide gels under reducing conditions, dried and visualized on a Typhoon FLA 7000 (GE Healthcare). Binding was quantified using ImageQuant Software.

[5] = tested on: UBE2G1; experiment: GST pulldown of in vitro translated 35S-UBE2G1; format: binding; conditions: GST-AUP1 aa 292 to 410, overnight 4°C, pH 7.4
Method: as §1, with “The data underlying this figure can be found in S1 Data. aa, amino acid; AUP1, ancient ubiquitous protein 1; CHX, cycloheximide; ERAD, endoplasmic reticulum–associated degradation; IP, immunoprecipitation; KO, knockout; WT, wild type.” left out
(§2) In vitro translated ^35S methionine-labeled E2s were generated using the E. coli T7-S30 Extract System (Promega) and excess ^35S methionine was removed by desalting twice with Zeba Spin Desalting Columns (Thermo Scientific). GST fusion proteins were quantified by Coomassie blue staining. […] Binding was quantified using ImageQuant Software.

[6] = tested on: UBE2J1/UBC6e; experiment: GST pulldown of in vitro translated 35S-UBE2J1; format: binding; conditions: GST-AUP1 aa 292 to 410, overnight 4°C, pH 7.4
Method: as §1, with “The data underlying this figure can be found in S1 Data. aa, amino acid; AUP1, ancient ubiquitous protein 1; CHX, cycloheximide; ERAD, endoplasmic reticulum–associated degradation; IP, immunoprecipitation; KO, knockout; WT, wild type.” left out
as §2

[7] = tested on: UBE2D2/UBCH5B; experiment: GST pulldown of in vitro translated 35S-UBE2D2; format: binding; conditions: GST-AUP1 aa 292 to 410, overnight 4°C, pH 7.4
Method: as §1, with “The data underlying this figure can be found in S1 Data. aa, amino acid; AUP1, ancient ubiquitous protein 1; CHX, cycloheximide; ERAD, endoplasmic reticulum–associated degradation; IP, immunoprecipitation; KO, knockout; WT, wild type.” left out
as §2

[8] = tested on: UBE2D3/UBCH5C; experiment: GST pulldown of in vitro translated 35S-UBE2D3; format: binding; conditions: GST-AUP1 aa 292 to 410, overnight 4°C, pH 7.4
Method: as §1, with “The data underlying this figure can be found in S1 Data. aa, amino acid; AUP1, ancient ubiquitous protein 1; CHX, cycloheximide; ERAD, endoplasmic reticulum–associated degradation; IP, immunoprecipitation; KO, knockout; WT, wild type.” left out
as §2

Molecule	Kd [1] [µM]	Kd [2] [µM]	Kd [3] [µM]	binding to UBE2G2 [4]	binding to UBE2G1 [5]	binding to UBE2J1 [6]	binding to UBE2D2 [7]	binding to UBE2D3 [8]
gp78 RING domain (domain or fragment, UniProt Q9UKV5 313-393, looked up, gp78 (aka AMFR or RNF45), RING domain; the limits 313-393 are those of the only gp78-RING construct that the methods name; also called gp78-RING construct (aa 313 to 393)) KNYLRVVGNMEARFAVATPEELAVNNDDCAICWDSMQAARKLPCGHLFHNSCLRSWLEQDTSCPTCRMSLNIADNNRVREE	207 ± 6.4	22.5	20.3					
GST fusion of AUP1: GST fusion of AUP1 that includes the G2BR (protein, left off: GST, end not stated, kept, GST fusion of AUP1 that includes the G2BR) SPDVQLATLAQRVKEVLPHVPLGVIQRDLAKTGCVDLTITNLLEGAVAFMPEDITKGTQSLPTASASKFPSSGPVTPQPTALTFAKSSWARQESLQERKQALYEYARRRFTERRAQEAD				bound UBE2G2	not UBE2G1	failed to show detectable binding	no discernable binding	no discernable binding
